Data on one molecule can be found in paper PMC2719619, “Efficient, chemoselective synthesis of immunomicelles using single-domain antibodies with a C-terminal thioester” (BMC Biotechnology, 2009).

Experiment [1] addresses T1, Glutathione-S-transferase from Schistosoma japonicum (Schistosoma japonicum, UniProt P08515 = GST).
T1 construct: GST of Schistosoma japonicum (printed as 'glutathione-S from Schistosoma japonicum'); recombinant from the vector pGEX-4T-2 in the selection; GST from pGEX-4T-2 would carry some residues of the vector's linker at its C-terminus; also called GST
The experiment can be described thus: SPR; GST immobilised on a CM5 chip by EDC/NHS (160 RU), 0-500 nM sdAb injected, 25°C, PBS with 0.05% Tween-20, 30 μL/min; steady state responses fitted to a one-site binding model; apparent. The settings on record: both partners purified.

Experiment [2] deals with T1, Glutathione-S-transferase from …. The experiment in a line: ELISA. To be noted: both partners purified.

T1 sequence (P08515 whole entry, looked up): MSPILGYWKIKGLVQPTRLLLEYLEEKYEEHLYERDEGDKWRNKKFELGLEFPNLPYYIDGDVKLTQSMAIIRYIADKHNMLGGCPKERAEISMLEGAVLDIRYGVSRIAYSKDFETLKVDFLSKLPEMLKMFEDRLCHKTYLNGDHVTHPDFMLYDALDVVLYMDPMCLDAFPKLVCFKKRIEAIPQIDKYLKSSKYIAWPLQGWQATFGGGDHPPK

B1: sdAb-aGST-MESNA (llama single-domain antibody against GST with a C-terminal MESNA thioester) (VHH)
VHH: QVQLQDSGGGIVQPGGSLRLSCAGSGFSLDHYAIGWFRQAPGKRRELVASITSGGTIRYADSVKDRFTISRDNAKNRVYLQMNSLKPEDTAVYYCSARAKFSTSYDYWGQGTQVTVSS
notes: llama single-domain antibody from a naive phage display library, clone C11 of vector pHENIX sdAb-α GST C11; A mix of species that differ in how much of the pelB leader is left (LC-MS: calcd. 19632, 19501, 18175, 18062 Da); One conserved disulfide bond; also called sdAb-α GST-MESNA; sdAb-GST; source: E. coli BL21 (DE3), pTXB1, periplasm; purified on a chitin column, cleaved from the intein with …
B1: the results for the Kd in experiment [1] and in experiment [2] were 116 nM and 77 nM, respectively.
